{"source": "patent US20220162320A1", "about": "(published 2022)", "key": {"[1]": {"target": "T1, CD3 (reagent of the affinity experiments of Example 18) (UniProt P07766 23-126)", "T1 chain": "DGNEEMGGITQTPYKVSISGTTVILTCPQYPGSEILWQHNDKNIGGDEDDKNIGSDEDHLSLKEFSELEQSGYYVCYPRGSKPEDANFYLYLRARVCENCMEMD", "assay": "BLI; IgG analyte, apparent KD (bivalent), avid"}, "[2]": {"target": "T1, CD3 (reagent of the affinity …)", "assay": "BLI"}, "[3]": {"target": "T2, HLA-PEPTIDE target G2: HLA-A*01:01_…, recombinant soluble complex (human, enzymatically biotinylated (BirA))", "assay": "BLI"}, "[4]": {"target": "T1, CD3 (reagent of the affinity …)", "assay": "BLI"}, "[5]": {"target": "T2, HLA-PEPTIDE target G2: HLA-A*01:01_…, …", "assay": "BLI; avid; apparent KD (bivalent)"}, "[6]": {"target": "T1, CD3 (reagent of the affinity …)", "assay": "BLI; avid; apparent KD (bivalent)"}, "[7]": {"target": "T2, HLA-PEPTIDE target G2: HLA-A*01:01_…, …", "assay": "BLI; apparent KD (bivalent), avid"}, "[8]": {"target": "T2, HLA-PEPTIDE target G2: HLA-A*01:01_…, …", "assay": "BLI", "remark": "listed apart in the source"}, "[9]": {"target": "T1, CD3 (reagent of the affinity …)", "assay": "BLI"}, "[10]": {"target": "T2, HLA-PEPTIDE target G2: HLA-A*01:01_…, …", "assay": "BLI", "remark": "listed apart in the source"}, "[11]": {"target": "T1, CD3 (reagent of the affinity …)", "assay": "BLI"}, "[12]": {"target": "T2, HLA-PEPTIDE target G2: HLA-A*01:01_…, …", "assay": "BLI; apparent KD (bivalent), avid", "remark": "listed apart in the source"}, "[13]": {"target": "T1, CD3 (reagent of the affinity …)", "assay": "BLI; apparent KD (bivalent), avid"}, "[14]": {"target": "T2, HLA-PEPTIDE target G2: HLA-A*01:01_…, …", "assay": "BLI", "remark": "listed apart in the source"}, "[15]": {"target": "T1, CD3 (reagent of the affinity …)", "assay": "BLI"}, "[16]": {"target": "T2, HLA-PEPTIDE target G2: HLA-A*01:01_…, …", "assay": "BLI", "remark": "listed apart in the source"}, "[17]": {"target": "T2, HLA-PEPTIDE target G2: HLA-A*01:01_…, …", "assay": "BLI", "remark": "listed apart in the source"}, "[18]": {"target": "T1, CD3 (reagent of the affinity …)", "assay": "BLI"}}}
{"binder": "hOKT3 IgG (antibody, V domains shown) VH: QVQLVQSGAEVKKPGASVKVSCKASGYTFTRYTMHWVRQAPGQGLEWMGYINPSRGYTNYNQKFKDRVTLTTDKSSSTAYMELSSLRSEDTAVYYCARYYDDHYSLDYWGQGTLVTVSS VL: DIQMTQSPSSLSASVGDRVTITCSASSSVSYMNWYQQKPGKAPKRLIYDTSKLASGVPSRFSGSGSGTDFTLTISSLQPEDFATYYCQQWSSNPFTFGQGTKLEIKR", "values": [{"measurement": "Kd", "setting": "[1]", "result": 8.44, "unit": "nM"}, {"measurement": "Kd", "setting": "[2]", "result": 268, "unit": "nM"}]}
{"binder": "6-G2(1H11)-αCD3 (bispecific antibody) heavy: not shown light: QAVVTQEPSLTVSPGGTVTLTCGSSTGAVTTSNYANWVQQKPGKSPRGLIGGTNKRAPGVPARFSGSLLGGKAALTISGAQPEDEADYYCALWYSNHWVFGGGTKLTVLRTVAAPSVFIFPPSDEQLKSGTASVVCLLNNFYPREAKVQWKVDNALQSGNSQESVTEQDSKDSTYSLSSTLTLSKADYEKHKVYACEVTHQGLSSPVTKSFNRGEC", "values": [{"measurement": "Kd", "setting": "[3]", "result": 215, "unit": "nM"}, {"measurement": "Kd", "setting": "[4]", "result": 5.95, "unit": "nM"}, {"measurement": "Kd", "setting": "[5]", "result": 4.53, "unit": "nM"}, {"measurement": "Kd", "setting": "[6]", "result": 0.828, "unit": "nM"}]}
{"binder": "4-G2(1H11)-αCD3 (bispecific antibody) not shown heavy: QVQLVQSGAEVKKPGASVKVSCKASGYTFTNYYMHWVRQAPGQGLEWMGMINPSGGGTSYAQKFQGRVTMTRDTSTSTVYMELSSLRSEDTAVYYCARGNPWELRLDYWGQGTLVTVSSGGGGSGGGGSGGGGSGGGGSDIQMTQSPSSLSASVGDRVTITCQASQDISNYLNWYQQKPGKAPKLLIYAASSLQSGVPSRFSGSGSGTDFTLTISSLQPEDFATYYCQQYYSYPFTFGPGTKVDIKGGGGSGGGGSEVQLVESGGGLVQPGGSLRLSCAASGFTFSTYAMNWVRQAPGKGLEWVGRIRSKYNNYATYYADSVKGRFTISRDDSKNTLYLQMNSLRAEDTAVYYCVRHGNFGDSYVSWFAYWGQGTLVTVSSASTKGPSVFPLAPSSKSTSGGTAALGCLVKDYFPEPVTVSWNSGALTSGVHTFPAVLQSSGLYSLSSVVTVPSSSLGTQTYICNVNHKPSNTKVDKRVEPKSCDKTHTCPPCPAPELLGGPSVFLFPPKPKDTLMISRTPEVTCVVVDVSHEDPEVKFNWYVDGVEVHNAKTKPREEQYQSTYRVVSVLTVLHQDWLNGKEYKCKVSNKALPAPIEKTISKAKGQPREPQVCTLPPSREEMTKNQVSLSCAVKGFYPSDIAVEWESNGQPENNYKTTPPVLDSDGSFFLVSKLTVDKSRWQQGNVFSCSVMHEALHNRFTQKSLSLSPGK light: QAVVTQEPSLTVSPGGTVTLTCGSSTGAVTTSNYANWVQQKPGKSPRGLIGGTNKRAPGVPARFSGSLLGGKAALTISGAQPEDEADYYCALWYSNHWVFGGGTKLTVLRTVAAPSVFIFPPSDEQLKSGTASVVCLLNNFYPREAKVQWKVDNALQSGNSQESVTEQDSKDSTYSLSSTLTLSKADYEKHKVYACEVTHQGLSSPVTKSFNRGEC", "values": [{"measurement": "Kd", "setting": "[7]", "result": 2.95, "unit": "nM"}, {"measurement": "Kd", "setting": "[8]", "result": 543, "unit": "nM"}, {"measurement": "Kd", "setting": "[9]", "result": 11.6, "unit": "nM"}]}
{"binder": "2-G2(1H11)-αCD3 (bispecific antibody) heavy: not shown light: QAVVTQEPSLTVSPGGTVTLTCGSSTGAVTTSNYANWVQQKPGKSPRGLIGGTNKRAPGVPARFSGSLLGGKAALTISGAQPEDEADYYCALWYSNHWVFGGGTKLTVLRTVAAPSVFIFPPSDEQLKSGTASVVCLLNNFYPREAKVQWKVDNALQSGNSQESVTEQDSKDSTYSLSSTLTLSKADYEKHKVYACEVTHQGLSSPVTKSFNRGEC", "values": [{"measurement": "Kd", "setting": "[10]", "result": 82.2, "unit": "nM"}, {"measurement": "Kd", "setting": "[11]", "result": 6.02, "unit": "nM"}, {"measurement": "Kd", "setting": "[12]", "result": 3.41, "unit": "nM"}, {"measurement": "Kd", "setting": "[13]", "result": 0.696, "unit": "nM"}]}
{"binder": "5-G2(1H11)-αCD3 (bispecific antibody) not shown heavy: QVQLVQSGAEVKKPGASVKVSCKASGYTFTNYYMHWVRQAPGQGLEWMGMINPSGGGTSYAQKFQGRVTMTRDTSTSTVYMELSSLRSEDTAVYYCARGNPWELRLDYWGQGTLVTVSSGGGGSGGGGSGGGGSGGGGSDIQMTQSPSSLSASVGDRVTITCQASQDISNYLNWYQQKPGKAPKLLIYAASSLQSGVPSRFSGSGSGTDFTLTISSLQPEDFATYYCQQYYSYPFTFGPGTKVDIKGGGGSGGGGSEVQLVESGGGLVQPGGSLRLSCAASGFTFSTYAMNWVRQAPGKGLEWVGRIRSKYNNYATYYADSVKGRFTISRDDSKNTLYLQMNSLRAEDTAVYYCVRHGNFGDSYVSWFAYWGQGTLVTVSSASTKGPSVFPLAPSSKSTSGGTAALGCLVKDYFPEPVTVSWNSGALTSGVHTFPAVLQSSGLYSLSSVVTVPSSSLGTQTYICNVNHKPSNTKVDKRVEPKSCDKTHTCPPCPAPELLGGPSVFLFPPKPKDTLMISRTPEVTCVVVDVSHEDPEVKFNWYVDGVEVHNAKTKPREEQYQSTYRVVSVLTVLHQDWLNGKEYKCKVSNKALPAPIEKTISKAKGQPREPQVCTLPPSREEMTKNQVSLSCAVKGFYPSDIAVEWESNGQPENNYKTTPPVLDSDGSFFLVSKLTVDKSRWQQGNVFSCSVMHEALHNRFTQKSLSLSPGK light: QAVVTQEPSLTVSPGGTVTLTCGSSTGAVTTSNYANWVQQKPGKSPRGLIGGTNKRAPGVPARFSGSLLGGKAALTISGAQPEDEADYYCALWYSNHWVFGGGTKLTVLRTVAAPSVFIFPPSDEQLKSGTASVVCLLNNFYPREAKVQWKVDNALQSGNSQESVTEQDSKDSTYSLSSTLTLSKADYEKHKVYACEVTHQGLSSPVTKSFNRGEC", "values": [{"measurement": "Kd", "setting": "[14]", "result": 28.8, "unit": "nM"}, {"measurement": "Kd", "setting": "[15]", "result": 20, "unit": "nM"}]}
{"binder": "3-G2(1H11)-OKT3 (bispecific antibody) not shown heavy: not shown light: QIVLTQSPAIMSASPGEKVTMTCSASSSVSYMNWYQQKSGTSPKRWIYDTSKLASGVPAHFRGSGSGTSYSLTISGMEAEDAATYYCQQWSSNPFTFGSGTKLEINRTVAAPSVFIFPPSDEQLKSGTASVVCLLNNFYPREAKVQWKVDNALQSGNSQESVTEQDSKDSTYSLSSTLTLSKADYEKHKVYACEVTHQGLSSPVTKSFNRGEC", "values": [{"measurement": "Kd", "setting": "[16]", "result": 24.8, "unit": "nM"}]}
{"binder": "3-OKT3-G2(1H11) (antibody) chain 1: not shown chain 2: not shown chain 3: MDMRVPAQLLGLLLLWLPGARCQIVLTQSPAIMSASPGEKVTMTCSASSSVSYMNWYQQKSGTSPKRWIYDTSKLASGVPAHFRGSGSGTSYSLTISGMEAEDAATYYCQQWSSNPFTFGSGTKLEINRTVAAPSVFIFPPSDEQLKSGTASVVCLLNNFYPREAKVQWKVDNALQSGNSQESVTEQDSKDSTYSLSSTLTLSKADYEKHKVYACEVTHQGLSSPVTKSFNRGEC", "values": [{"measurement": "Kd", "setting": "[16]", "result": 23.8, "unit": "nM"}]}
{"binder": "3-G2(1H11)-hOKT3 (bispecific antibody) not shown heavy: QVQLVQSGAEVKKPGASVKVSCKASGYTFTRYTMHWVRQAPGQGLEWMGYINPSRGYTNYNQKFKDRVTLTTDKSSSTAYMELSSLRSEDTAVYYCARYYDDHYSLDYWGQGTLVTVSSASTKGPSVFPLAPSSKSTSGGTAALGCLVKDYFPEPVTVSWNSGALTSGVHTFPAVLQSSGLYSLSSVVTVPSSSLGTQTYICNVNHKPSNTKVDKRVEPKSCDKTHTCPPCPAPELLGGPSVFLFPPKPKDTLMISRTPEVTCVVVDVSHEDPEVKFNWYVDGVEVHNAKTKPREEQYQSTYRVVSVLTVLHQDWLNGKEYKCKVSNKALPAPIEKTISKAKGQPREPQVCTLPPSREEMTKNQVSLSCAVKGFYPSDIAVEWESNGQPENNYKTTPPVLDSDGSFFLVSKLTVDKSRWQQGNVFSCSVMHEALHNRFTQKSLSLSPGK light: DIQMTQSPSSLSASVGDRVTITCSASSSVSYMNWYQQKPGKAPKRLIYDTSKLASGVPSRFSGSGSGTDFTLTISSLQPEDFATYYCQQWSSNPFTFGQGTKLEIKRTVAAPSVFIFPPSDEQLKSGTASVVCLLNNFYPREAKVQWKVDNALQSGNSQESVTEQDSKDSTYSLSSTLTLSKADYEKHKVYACEVTHQGLSSPVTKSFNRGEC", "values": [{"measurement": "Kd", "setting": "[17]", "result": 421, "unit": "nM"}, {"measurement": "Kd", "setting": "[18]", "result": 168, "unit": "nM"}]}
